# According to patent US20080292704A1 (published 2008):
# What was measured:
# HSA1Fc = molecular target: T1, HSA1Fc (human, UniProt P02768 25-221); experiment: ELISA on coated recombinant receptor, Protein G-HRPO detection
# T1 construct: range 1-197; also called Fc fusion protein; Ig fusion protein
# HSA1R4 [1] = molecular target: T2, HSA1R4 (human, UniProt P02768 25-221); experiment: ELISA on coated recombinant receptor (2 µg/mL), HRPO-Protein G detection
# T2 construct: range 1-197; also called R4 ligand; HCH2 polymer
# T2 sequence (P02768 other isoform, or with tags, fused parts or gaps): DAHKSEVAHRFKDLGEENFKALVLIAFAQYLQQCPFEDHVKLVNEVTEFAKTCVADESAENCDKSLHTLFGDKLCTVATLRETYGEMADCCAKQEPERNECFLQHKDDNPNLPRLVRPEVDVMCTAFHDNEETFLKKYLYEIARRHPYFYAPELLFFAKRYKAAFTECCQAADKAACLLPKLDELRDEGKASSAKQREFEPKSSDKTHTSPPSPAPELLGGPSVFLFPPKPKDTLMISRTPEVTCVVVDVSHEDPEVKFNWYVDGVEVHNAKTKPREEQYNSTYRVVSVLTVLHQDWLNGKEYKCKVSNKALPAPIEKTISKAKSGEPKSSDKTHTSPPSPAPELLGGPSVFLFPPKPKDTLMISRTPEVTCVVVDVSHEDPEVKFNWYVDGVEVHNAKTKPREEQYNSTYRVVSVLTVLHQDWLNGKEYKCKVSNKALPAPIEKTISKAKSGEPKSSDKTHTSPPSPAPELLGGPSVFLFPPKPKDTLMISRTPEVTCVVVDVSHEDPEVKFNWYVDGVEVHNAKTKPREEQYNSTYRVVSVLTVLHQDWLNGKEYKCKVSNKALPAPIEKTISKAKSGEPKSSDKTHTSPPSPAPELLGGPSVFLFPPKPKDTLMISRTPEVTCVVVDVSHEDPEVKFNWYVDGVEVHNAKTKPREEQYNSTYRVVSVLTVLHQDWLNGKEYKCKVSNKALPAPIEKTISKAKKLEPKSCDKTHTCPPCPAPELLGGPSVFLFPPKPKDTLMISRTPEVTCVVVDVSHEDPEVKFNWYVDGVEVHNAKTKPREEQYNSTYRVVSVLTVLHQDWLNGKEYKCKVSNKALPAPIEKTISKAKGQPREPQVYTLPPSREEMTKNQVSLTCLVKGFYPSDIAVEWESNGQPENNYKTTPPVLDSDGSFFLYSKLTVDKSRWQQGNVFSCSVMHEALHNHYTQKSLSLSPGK
# HSA1R4 [2] = molecular target: T2, HSA1R4; experiment: ELISA on coated recombinant receptor (4 µg/mL), HRPO-Protein G detection
# T1 sequence (P02768 other isoform, or with tags, fused parts or gaps): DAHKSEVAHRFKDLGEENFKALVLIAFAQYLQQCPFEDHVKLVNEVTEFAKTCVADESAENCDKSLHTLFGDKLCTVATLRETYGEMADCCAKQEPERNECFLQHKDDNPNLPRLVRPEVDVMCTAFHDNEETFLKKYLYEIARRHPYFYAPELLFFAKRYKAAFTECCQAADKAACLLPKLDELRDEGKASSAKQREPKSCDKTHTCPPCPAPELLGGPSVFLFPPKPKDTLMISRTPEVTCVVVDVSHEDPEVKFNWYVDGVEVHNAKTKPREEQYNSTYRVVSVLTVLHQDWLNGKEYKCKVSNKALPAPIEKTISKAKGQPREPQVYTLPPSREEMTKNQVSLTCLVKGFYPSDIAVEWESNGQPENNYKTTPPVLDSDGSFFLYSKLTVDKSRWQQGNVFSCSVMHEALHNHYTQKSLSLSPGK
Binder,binding result (HSA1Fc),binding result (HSA1R4 [1]),binding result (HSA1R4 [2])
"recombinant FcγRI ligand binding domain, 6xHis tagged (receptor) QVDTTKAVITLQPPWVSVFQEETVTLHCEVLHLPGSSSTQWFLNGTATQTSTPSYRITSASVNDSGEYRCQRGLSGRSDPIQLEIHRGWLLLQVSSRVFTEGEPLALRCHAWKDKLVYNVLYYRNGKAFKFFHWNSNLTILKTNISHNGTYHCSGMGKHRYTSAGISVTVKELFPAPVLNASVTSPLLEGNLVTLSCETKLLLQRPGLQLYFSFYMGSKTLRGRNTSSEYQILTARREDSGLYWCEAATEDGNVLKRSPELELQVLGLQLPTPVWFH",binds,binds,
"recombinant FcγRIIa ligand binding domain, 6xHis tagged (receptor) QAAAPPKAVLKLEPPWINVLQEDSVTLTCQGARSPESDSIQWFHNGNLIPTHTQPSYRFKANNNDSGEYTCQTGQTSLSDPVHLTVLSEWLVLQTPHLEFQEGETIMLRCHSWKDKPLVKVTFFQNGKSQKFSHLDPTFSIPQANHSHSGDYHCTGNIGYTLFSSKPVTITVQVPSMGSSSPMG",no binding (tested: 20 ug/mL (highest concentration tested)),,
"recombinant FcγRIIb ligand binding domain, 6xHis tagged (receptor) TPAAPPKAVLKLEPQWINVLQEDSVTLTCRGTHSPESDSIQWFHNGNLIPTHTQPSYRFKANNNDSGEYTCQTGQTSLSDPVHLTVLSEWLVLQTPHLEFQEGETIVLRCHSWKDKPLVKVTFFQNGKSKKFSRSDPNFSIPQANHSHSGDYHCTGNIGYTLYSSKPVTITVQAP",no binding (tested: 20 ug/mL (highest concentration tested)),,binds
